# According to patent US12060424 (AMUNIX PHARMACEUTICALS, dated 2024):
# T1: human EpCAM expressed on cells (CHO cells stably transfected with human EpCAM); EpCAM-positive human tumor … (human, UniProt P16422 24-314)
# T1 sequence (looked up): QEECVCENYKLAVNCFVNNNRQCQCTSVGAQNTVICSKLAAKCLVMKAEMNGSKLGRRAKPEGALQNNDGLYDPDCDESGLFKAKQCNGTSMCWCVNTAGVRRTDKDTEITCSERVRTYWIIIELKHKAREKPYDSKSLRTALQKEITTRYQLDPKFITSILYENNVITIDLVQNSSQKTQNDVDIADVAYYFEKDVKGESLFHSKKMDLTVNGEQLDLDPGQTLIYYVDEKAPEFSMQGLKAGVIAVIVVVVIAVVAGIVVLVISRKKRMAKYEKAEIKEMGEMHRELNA
# Experiments:
# [1] = molecular target: T1, human EpCAM expressed on cells (CHO …); assay: cell-based or functional assay
# [2] = molecular target: recombinant human CD3 epsilon & delta (rhCD3ε & δ), Creative BioMart cat #CD3E&CD3D-219H (human) (UniProt P07766); assay: sandwich ELISA: rhCD3ε & δ coated, biotinylated anti-XTEN antibody detection
# recombinant human CD3 epsilon & delta (rhCD3ε & δ), Creative BioMart cat #CD3E&CD3D-219H (human), sequence (P07766 23-126, stated change not applied, chain 1 of 2): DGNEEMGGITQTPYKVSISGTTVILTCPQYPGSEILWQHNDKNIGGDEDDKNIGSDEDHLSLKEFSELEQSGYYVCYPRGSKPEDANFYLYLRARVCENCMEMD
# recombinant human CD3 epsilon & delta (rhCD3ε & δ), Creative BioMart cat #CD3E&CD3D-219H (human), sequence (P04234 22-105, stated change not applied, chain 2 of 2, further chain): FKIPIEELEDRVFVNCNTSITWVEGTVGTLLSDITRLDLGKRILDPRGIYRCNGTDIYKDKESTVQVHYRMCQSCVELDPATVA
Binder,EC50 [2],"EC50 (pM), caspase 3/7 cytotoxicity, PBMC with HCT-116 cells 10:1 [1]","EC50 (pM), caspase 3/7 cytotoxicity, PBMC with HPAF-II cells 10:1 [1]","EC50 (pM), caspase 3/7 cytotoxicity, PBMC with MDA-MB-231 cells 10:1 [1]"
AC1685 protease-untreated anti-EpCAM×anti-CD3 ProTIA (bispecific antibody) DIQMTQSPSSLSASVGDRVTITCRSTKSLLHSNGITYLYWYQQKPGKAPKLLIYQMSNLASGVPSRFSSSGSGTDFTLTISSLQPEDFATYYCAQNLEIPRTFGQGTKVEIKGATPPETGAETESPGETTGGSAESEPPGEGQVQLVQSGPGLVQPGGSVRISCAASGYTFTNYGMNWVKQAPGKGLEWMGWINTYTGESTYADSFKGRFTFSLDTSASAAYLQINSLRAEDTAVYYCARFAIKGDYWGQGTLLTVSSGGGGSDIQMTQSPSSLSASVGDRVTITCRASQDIRNYLNWYQQKPGKAPKLLIYYTSRLESGVPSRFSGSGSGTDYTLTISSLQPEDFATYYCQQGNTLPWTFGQGTKVEIKGATPPETGAETESPGETTGGSAESEPPGEGEVQLVESGGGLVQPGGSLRLSCAASGYSFTGYTMNWVRQAPGKGLEWVALINPYKGVSTYNQKFKDRFTISVDKSKNTAYLQMNSLRAEDTAVYYCARSGYYGDSDWYFDVWGQGTLVTVSSGTAEAASASGESGRAANTAPEGLTGPPGSPAGSPTSTEEGTSESATPESGPGTSTEPSEGSAPGSPAGSPTSTEEGTSTEPSEGSAPGTSTEPSEGSAPGTSESATPESGPGSEPATSGSETPGSEPATSGSETPGSPAGSPTSTEEGTSESATPESGPGTSTEPSEGSAPGTSTEPSEGSAPGSPAGSPTSTEEGTSTEPSEGSAPGTSTEPSEGSAPGTSESATPESGPGTSTEPSEGSAPGTSESATPESGPGSEPATSGSETPGTSTEPSEGSAPGTSTEPSEGSAPGTSESATPESGPGTSESATPESGPGSPAGSPTSTEEGTSESATPESGPGSEPATSGSETPGTSESATPESGPGTSTEPSEGSAPGTSTEPSEGSAPGTSTEPSEGSAPGTSTEPSEGSAPGTSTEPSEGSAPGTSTEPSEGSAPGSPAGSPTSTEEGTSTEPSEGSAPGTSESATPESGPGSEPATSGSETPGTSESATPESGPGSEPATSGSETPGTSESATPESGPGTSTEPSEGSAPGTSESATPESGPGSPAGSPTSTEEGSPAGSPTSTEEGSPAGSPTSTEEGTSESATPESGPGTSTEPSEGSAPGTSESATPESGPGSEPATSGSETPGTSESATPESGPGSEPATSGSETPGTSESATPESGPGTSTEPSEGSAPGSPAGSPTSTEEGTSESATPESGPGSEPATSGSETPGTSESATPESGPGSPAGSPTSTEEGSPAGSPTSTEEGTSTEPSEGSAPGTSESATPESGPGTSESATPESGPGTSESATPESGPGSEPATSGSETPGSEPATSGSETPGSPAGSPTSTEEGTSTEPSEGSAPGTSTEPSEGSAPGSEPATSGSETPGTSESATPESGPGTSTEPSEGSAPGHHHHHH,0.029 µg/mL,27 pM,29 pM,4340 pM
AC1686 protease-untreated anti-EpCAM×anti-CD3 ProTIA (bispecific antibody) DIQMTQSPSSLSASVGDRVTITCRSTKSLLHSNGITYLYWYQQKPGKAPKLLIYQMSNLASGVPSRFSSSGSGTDFTLTISSLQPEDFATYYCAQNLEIPRTFGQGTKVEIKGATPPETGAETESPGETTGGSAESEPPGEGQVQLVQSGPGLVQPGGSVRISCAASGYTFTNYGMNWVKQAPGKGLEWMGWINTYTGESTYADSFKGRFTFSLDTSASAAYLQINSLRAEDTAVYYCARFAIKGDYWGQGTLLTVSSGGGGSDIQMTQSPSSLSASVGDRVTITCRASQDIRNYLNWYQQKPGKAPKLLIYYTSRLESGVPSRFSGSGSGTDYTLTISSLQPEDFATYYCQQGNTLPWTFGQGTKVEIKGATPPETGAETESPGETTGGSAESEPPGEGEVQLVESGGGLVQPGGSLRLSCAASGYSFTGYTMNWVRQAPGKGLEWVALINPYKGVSTYNQKFKDRFTISVDKSKNTAYLQMNSLRAEDTAVYYCARSGYYGDSDWYFDVWGQGTLVTVSSGTAEAASASGEPGRAANHEPSGLTEGPGSPAGSPTSTEEGTSESATPESGPGTSTEPSEGSAPGSPAGSPTSTEEGTSTEPSEGSAPGTSTEPSEGSAPGTSESATPESGPGSEPATSGSETPGSEPATSGSETPGSPAGSPTSTEEGTSESATPESGPGTSTEPSEGSAPGTSTEPSEGSAPGSPAGSPTSTEEGTSTEPSEGSAPGTSTEPSEGSAPGTSESATPESGPGTSTEPSEGSAPGTSESATPESGPGSEPATSGSETPGTSTEPSEGSAPGTSTEPSEGSAPGTSESATPESGPGTSESATPESGPGSPAGSPTSTEEGTSESATPESGPGSEPATSGSETPGTSESATPESGPGTSTEPSEGSAPGTSTEPSEGSAPGTSTEPSEGSAPGTSTEPSEGSAPGTSTEPSEGSAPGTSTEPSEGSAPGSPAGSPTSTEEGTSTEPSEGSAPGTSESATPESGPGSEPATSGSETPGTSESATPESGPGSEPATSGSETPGTSESATPESGPGTSTEPSEGSAPGTSESATPESGPGSPAGSPTSTEEGSPAGSPTSTEEGSPAGSPTSTEEGTSESATPESGPGTSTEPSEGSAPGTSESATPESGPGSEPATSGSETPGTSESATPESGPGSEPATSGSETPGTSESATPESGPGTSTEPSEGSAPGSPAGSPTSTEEGTSESATPESGPGSEPATSGSETPGTSESATPESGPGSPAGSPTSTEEGSPAGSPTSTEEGTSTEPSEGSAPGTSESATPESGPGTSESATPESGPGTSESATPESGPGSEPATSGSETPGSEPATSGSETPGSPAGSPTSTEEGTSTEPSEGSAPGTSTEPSEGSAPGSEPATSGSETPGTSESATPESGPGTSTEPSEGSAPGHHHHHH,0.026 µg/mL,240 pM,118 pM,2680 pM

# More lines, main results first:
EC50 [2],Binder,"EC50 (pM), caspase 3/7 cytotoxicity, PBMC with HCT-116 cells 10:1 [1]","EC50 (pM), caspase 3/7 cytotoxicity, PBMC with HPAF-II cells 10:1 [1]","EC50 (pM), caspase 3/7 cytotoxicity, PBMC with MDA-MB-231 cells 10:1 [1]"
0.028 µg/mL,AC1695 protease-untreated anti-EpCAM×anti-CD3 ProTIA (bispecific antibody) DIQMTQSPSSLSASVGDRVTITCRSTKSLLHSNGITYLYWYQQKPGKAPKLLIYQMSNLASGVPSRFSSSGSGTDFTLTISSLQPEDFATYYCAQNLEIPRTFGQGTKVEIKGATPPETGAETESPGETTGGSAESEPPGEGQVQLVQSGPGLVQPGGSVRISCAASGYTFTNYGMNWVKQAPGKGLEWMGWINTYTGESTYADSFKGRFTFSLDTSASAAYLQINSLRAEDTAVYYCARFAIKGDYWGQGTLLTVSSGGGGSDIQMTQSPSSLSASVGDRVTITCRASQDIRNYLNWYQQKPGKAPKLLIYYTSRLESGVPSRFSGSGSGTDYTLTISSLQPEDFATYYCQQGNTLPWTFGQGTKVEIKGATPPETGAETESPGETTGGSAESEPPGEGEVQLVESGGGLVQPGGSLRLSCAASGYSFTGYTMNWVRQAPGKGLEWVALINPYKGVSTYNQKFKDRFTISVDKSKNTAYLQMNSLRAEDTAVYYCARSGYYGDSDWYFDVWGQGTLVTVSSGTAEAASASGTTGRAGEAANLTPAGLTGPPGSPAGSPTSTEEGTSESATPESGPGTSTEPSEGSAPGSPAGSPTSTEEGTSTEPSEGSAPGTSTEPSEGSAPGTSESATPESGPGSEPATSGSETPGSEPATSGSETPGSPAGSPTSTEEGTSESATPESGPGTSTEPSEGSAPGTSTEPSEGSAPGSPAGSPTSTEEGTSTEPSEGSAPGTSTEPSEGSAPGTSESATPESGPGTSTEPSEGSAPGTSESATPESGPGSEPATSGSETPGTSTEPSEGSAPGTSTEPSEGSAPGTSESATPESGPGTSESATPESGPGSPAGSPTSTEEGTSESATPESGPGSEPATSGSETPGTSESATPESGPGTSTEPSEGSAPGTSTEPSEGSAPGTSTEPSEGSAPGTSTEPSEGSAPGTSTEPSEGSAPGTSTEPSEGSAPGSPAGSPTSTEEGTSTEPSEGSAPGTSESATPESGPGSEPATSGSETPGTSESATPESGPGSEPATSGSETPGTSESATPESGPGTSTEPSEGSAPGTSESATPESGPGSPAGSPTSTEEGSPAGSPTSTEEGSPAGSPTSTEEGTSESATPESGPGTSTEPSEGSAPGTSESATPESGPGSEPATSGSETPGTSESATPESGPGSEPATSGSETPGTSESATPESGPGTSTEPSEGSAPGSPAGSPTSTEEGTSESATPESGPGSEPATSGSETPGTSESATPESGPGSPAGSPTSTEEGSPAGSPTSTEEGTSTEPSEGSAPGTSESATPESGPGTSESATPESGPGTSESATPESGPGSEPATSGSETPGSEPATSGSETPGSPAGSPTSTEEGTSTEPSEGSAPGTSTEPSEGSAPGSEPATSGSETPGTSESATPESGPGTSTEPSEGSAPGHHHHHH,53 pM,18 pM,3750 pM
0.031 µg/mL,AC1684 protease-untreated anti-EpCAM×anti-CD3 ProTIA (bispecific antibody) DIQMTQSPSSLSASVGDRVTITCRSTKSLLHSNGITYLYWYQQKPGKAPKLLIYQMSNLASGVPSRFSSSGSGTDFTLTISSLQPEDFATYYCAQNLEIPRTFGQGTKVEIKGATPPETGAETESPGETTGGSAESEPPGEGQVQLVQSGPGLVQPGGSVRISCAASGYTFTNYGMNWVKQAPGKGLEWMGWINTYTGESTYADSFKGRFTFSLDTSASAAYLQINSLRAEDTAVYYCARFAIKGDYWGQGTLLTVSSGGGGSDIQMTQSPSSLSASVGDRVTITCRASQDIRNYLNWYQQKPGKAPKLLIYYTSRLESGVPSRFSGSGSGTDYTLTISSLQPEDFATYYCQQGNTLPWTFGQGTKVEIKGATPPETGAETESPGETTGGSAESEPPGEGEVQLVESGGGLVQPGGSLRLSCAASGYSFTGYTMNWVRQAPGKGLEWVALINPYKGVSTYNQKFKDRFTISVDKSKNTAYLQMNSLRAEDTAVYYCARSGYYGDSDWYFDVWGQGTLVTVSSGTAEAASASGESGRAANTEPPELGAGPGSPAGSPTSTEEGTSESATPESGPGTSTEPSEGSAPGSPAGSPTSTEEGTSTEPSEGSAPGTSTEPSEGSAPGTSESATPESGPGSEPATSGSETPGSEPATSGSETPGSPAGSPTSTEEGTSESATPESGPGTSTEPSEGSAPGTSTEPSEGSAPGSPAGSPTSTEEGTSTEPSEGSAPGTSTEPSEGSAPGTSESATPESGPGTSTEPSEGSAPGTSESATPESGPGSEPATSGSETPGTSTEPSEGSAPGTSTEPSEGSAPGTSESATPESGPGTSESATPESGPGSPAGSPTSTEEGTSESATPESGPGSEPATSGSETPGTSESATPESGPGTSTEPSEGSAPGTSTEPSEGSAPGTSTEPSEGSAPGTSTEPSEGSAPGTSTEPSEGSAPGTSTEPSEGSAPGSPAGSPTSTEEGTSTEPSEGSAPGTSESATPESGPGSEPATSGSETPGTSESATPESGPGSEPATSGSETPGTSESATPESGPGTSTEPSEGSAPGTSESATPESGPGSPAGSPTSTEEGSPAGSPTSTEEGSPAGSPTSTEEGTSESATPESGPGTSTEPSEGSAPGTSESATPESGPGSEPATSGSETPGTSESATPESGPGSEPATSGSETPGTSESATPESGPGTSTEPSEGSAPGSPAGSPTSTEEGTSESATPESGPGSEPATSGSETPGTSESATPESGPGSPAGSPTSTEEGSPAGSPTSTEEGTSTEPSEGSAPGTSESATPESGPGTSESATPESGPGTSESATPESGPGSEPATSGSETPGSEPATSGSETPGSPAGSPTSTEEGTSTEPSEGSAPGTSTEPSEGSAPGSEPATSGSETPGTSESATPESGPGTSTEPSEGSAPGHHHHHH,32 pM,24 pM,12200 pM
